From article PMC3568192 (Journal of molecular biology, 2012) come the findings set out here.

Substitutions are numbered along the chain they refer to. Names and notes keep the numbering of the source. Where no end group is shown, it is not given here.

Data set [1] deals with fluorescently labeled wild-type CPB-1(19-80) (C. elegans) (UniProt Q03571). The data set can be described thus: fluorescence polarisation. (In general: Polarisation of emitted light reports the rotation of a fluorescent probe.)
The target in data set [2] is T1, FBF-2 (164-575) (C. elegans, UniProt Q09312 164-575).
T1 sequence (looked up): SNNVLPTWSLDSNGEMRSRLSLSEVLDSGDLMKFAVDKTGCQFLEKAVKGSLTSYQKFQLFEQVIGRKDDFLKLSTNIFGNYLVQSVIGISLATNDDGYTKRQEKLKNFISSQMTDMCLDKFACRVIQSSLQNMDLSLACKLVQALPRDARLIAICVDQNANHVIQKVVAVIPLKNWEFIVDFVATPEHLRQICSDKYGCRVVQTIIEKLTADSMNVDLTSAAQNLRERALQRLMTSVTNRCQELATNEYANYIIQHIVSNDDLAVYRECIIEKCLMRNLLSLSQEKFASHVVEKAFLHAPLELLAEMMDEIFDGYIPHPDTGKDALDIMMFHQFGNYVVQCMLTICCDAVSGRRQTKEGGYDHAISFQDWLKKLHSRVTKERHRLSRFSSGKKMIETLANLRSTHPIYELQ
Kind of data set: NMR, [15N,1H]-HSQC free against bound.

For data set [3], the target named is T1, FBF-2 (164-575). Kind of data set: fluorescence polarisation.
For data set [4], the target named is T2, FBF-1 (164-566) (C. elegans, UniProt Q9N5M6 164-566).
T2 sequence (looked up): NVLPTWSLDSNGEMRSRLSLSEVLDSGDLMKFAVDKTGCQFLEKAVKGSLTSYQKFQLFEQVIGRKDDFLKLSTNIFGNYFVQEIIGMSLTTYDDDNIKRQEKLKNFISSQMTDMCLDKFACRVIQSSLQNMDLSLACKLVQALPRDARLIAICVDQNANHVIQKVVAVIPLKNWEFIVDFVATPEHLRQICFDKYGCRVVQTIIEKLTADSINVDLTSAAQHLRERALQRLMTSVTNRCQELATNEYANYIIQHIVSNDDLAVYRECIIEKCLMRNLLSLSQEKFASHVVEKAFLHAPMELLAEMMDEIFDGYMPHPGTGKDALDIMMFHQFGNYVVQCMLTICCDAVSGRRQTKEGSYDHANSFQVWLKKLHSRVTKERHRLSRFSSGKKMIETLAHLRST
The data set can be described thus: pull-down.

The target in data set [5] is T3, FBF-2 (164-566) (C. elegans, UniProt Q09312 164-566).
T3 sequence (looked up): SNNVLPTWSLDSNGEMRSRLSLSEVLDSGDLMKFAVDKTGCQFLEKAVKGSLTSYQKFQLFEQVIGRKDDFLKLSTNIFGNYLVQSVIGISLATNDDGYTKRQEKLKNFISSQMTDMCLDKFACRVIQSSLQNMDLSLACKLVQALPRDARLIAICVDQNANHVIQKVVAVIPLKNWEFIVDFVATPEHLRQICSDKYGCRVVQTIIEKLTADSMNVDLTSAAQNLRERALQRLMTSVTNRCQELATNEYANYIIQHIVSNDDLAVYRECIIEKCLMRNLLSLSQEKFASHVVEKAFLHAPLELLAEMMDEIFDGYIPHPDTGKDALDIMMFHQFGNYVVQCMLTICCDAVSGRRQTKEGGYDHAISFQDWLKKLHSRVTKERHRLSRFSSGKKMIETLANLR
Kind of data set: pull-down.

The target in data set [6] is T2, FBF-1 (164-566). Kind of data set: cross-linking.
Data set [7] has as its target T3, FBF-2 (164-566). Kind of data set: cross-linking.
The target of data set [8] is T4, FBF-2 (164-575);MBP-CPB-1 (1-80) (Caenorhabditis elegans;Caenorhabditis …, UniProt Q09312;Q03571 164-575;1-80, |).
T4 sequence 1: T1 sequence (looked up)
T4 sequence 2: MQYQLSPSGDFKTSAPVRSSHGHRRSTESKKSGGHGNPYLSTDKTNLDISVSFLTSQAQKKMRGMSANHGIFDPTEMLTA
Kind of data set: EMSA. For orientation: Mobility shift assays separate free from complexed probe on a gel.

In data set [9] the target is T5, FBF-2 (164-575) (Caenorhabditis elegans, UniProt Q09312 164-575).
T5 sequence: T1 sequence (looked up)
Kind of data set: EMSA.

B1: FBF-2 (164-575) (domain or fragment)
chain: T1 sequence (looked up)
A word on the Kd: it is the concentration at which binding is half-saturated. Higher therefore signals lower affinity. In data set [1], B1 returned a Kd of 49 nM.

B2: FBF-2 (164-575) T485A (domain or fragment)
chain: T1 sequence (looked up) with T322A
In turn, B2 gave a dissociation constant Kd in [1] of 1260 nM.

B3: FBF-2 (164-575) I480A (domain or fragment)
chain: T1 sequence (looked up) with I317A
On to B3, for which, in [1], the Kd turned out to be 778 nM.

B4: FBF-2 (164-575) Y479A (domain or fragment)
chain: T1 sequence (looked up) with Y316A
Turning to B4, the fold increase in Kd relative to wild-type FBF in data set [1] is greater than 60 fold. Consider SGGHGNPYLSTDKTNLDISVSFLTSQAQKKMRGMSANHGIFDPTEMLTA (domain or fragment, C. elegans, UniProt Q03571 32-80, looked up, also: 15N labeled) [15N-labeled CPB-1(32-80)], for which the binding result with FBF-2 (164-575) [2] is “binds”.

B5: CPB-1(19-80) (domain or fragment, C. elegans, UniProt Q03571 19-80, looked up)
chain: SSHGHRRSTESKKSGGHGNPYLSTDKTNLDISVSFLTSQAQKKMRGMSANHGIFDPTEMLTA
For orientation: IC50 means the concentration needed to halve the response being measured. For the molecule B5, in the data set with FBF-2 (164-575) [3], the IC50 worked out at 1150 ± 50 nM.

B6: CPB-1(19-80) K44A (domain or fragment, C. elegans, UniProt Q03571 19-80, looked up)
chain: B5 chain with K26A
With B6, the binding result with FBF-2 (164-575) [3] is “binds”.

B7: CPB-1(19-80) L47A (domain or fragment, C. elegans, UniProt Q03571 19-80, looked up)
chain: B5 chain with L29A
With B7, in the data set with FBF-2 (164-575) [3], the binding result is reported as “binds”.

B8: CPB-1(19-80) L40A (domain or fragment, C. elegans, UniProt Q03571 19-80, looked up)
chain: B5 chain with L22A
In the case of B8, the binding result with FBF-2 (164-575) [3] was “binds”.

B9: CPB-1(19-80) I49A (domain or fragment, C. elegans, UniProt Q03571 19-80, looked up)
chain: B5 chain with I31A
In the case of B9, in the data set with FBF-2 (164-575) [3], the binding result was “binds”.

B10: CPB-1(19-80) T45A (domain or fragment, C. elegans, UniProt Q03571 19-80, looked up)
chain: B5 chain with T27A
On to B10, for which the binding result with FBF-2 (164-575) [3] was “binds”. Take SGGHGNPYLSTDKTNLDISVSFLTSQAQK (domain or fragment, C. elegans, UniProt Q03571 32-60, looked up) [CPB-1(32-60)]: the binding result with FBF-1 (164-566) [4] and in the data set with FBF-2 (164-566) [5] was “binds” each time.

B11: CPB-1(1-80) (domain or fragment, C. elegans, UniProt Q03571 1-80, looked up)
chain: T4 sequence 2
For orientation: stoichiometry N means a count of units in the complex or per binding partner. Turning to B11, the “stoichiometry N” value with FBF-1 (164-566) [6] and with FBF-2 (164-566) [7] was 1 throughout. For the molecule CGAAAUAAACAUUUUGUACCAUUCAGUC (ssRNA) [cyb-1 RNA], the Kd in data set [8] stood at 5.8 nM; with FBF-2 (164-575) [9], 24 nM.
